Measured values: the supplement of paper PMC9112550, “Optimization of the antimicrobial peptide Bac7 by deep mutational scanning” (BMC Biology, 2022)

Test system: Escherichia coli TOP10
Test: shrunken log2 fold change of peptide-encoding DNA abundance (4.5 h post-induction vs induction); higher = less antimicrobial activity (less host growth inhibition)
Conditions: time post-induction: 4.5 h; library: site-saturation at positions 5, 18, 19, 20
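Further: peptides expressed intracellularly from a pBAD plasmid library in pooled LB shake-flask culture, induced with 0.3% L-arabinose, DNA abundance read by NGS, three biological replicates, DESeq2 with apeglm shrinkage.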

## RRIRTRPPRLPRPRPRPCPWPRP
  shrunken log2 fold change: -0.21

## RRIRTRPPRLPRPRPRPCSCPRP
  shrunken log2 fold change: -0.0701

## RRIRTRPPRLPRPRPRPCSNPRP
  shrunken log2 fold change: -0.0243

## RRIRTRPPRLPRPRPRPCSVPRP
  shrunken log2 fold change: 0.0123

## RRIRTRPPRLPRPRPRPCTPPRP
  shrunken log2 fold change: -0.214

## RRIRTRPPRLPRPRPRPCVLPRP
  shrunken log2 fold change: 0.0134

## RRIRTRPPRLPRPRPRPCWAPRP
  shrunken log2 fold change: -0.0904

## RRIRTRPPRLPRPRPRPCWHPRP
  shrunken log2 fold change: -0.119

## RRIRTRPPRLPRPRPRPCYKPRP
  shrunken log2 fold change: -0.06

## RRIRTRPPRLPRPRPRPCYSPRP
  shrunken log2 fold change: -0.0481

## RRIRTRPPRLPRPRPRPDAGPRP
  shrunken log2 fold change: 0.11

## RRIRTRPPRLPRPRPRPDCAPRP
  shrunken log2 fold change: 0.719

## RRIRTRPPRLPRPRPRPDDFPRP
  shrunken log2 fold change: 0.0516

## RRIRTRPPRLPRPRPRPDEIPRP
  shrunken log2 fold change: -0.235

## RRIRTRPPRLPRPRPRPDEQPRP
  shrunken log2 fold change: 0.0127

## RRIRTRPPRLPRPRPRPDFSPRP
  shrunken log2 fold change: -0.0283

## RRIRTRPPRLPRPRPRPDFWPRP
  shrunken log2 fold change: 0.413

## RRIRTRPPRLPRPRPRPDGKPRP
  shrunken log2 fold change: -0.41

## RRIRTRPPRLPRPRPRPDIYPRP
  shrunken log2 fold change: -0.138

## RRIRTRPPRLPRPRPRPDKEPRP
  shrunken log2 fold change: -0.0196

## RRIRTRPPRLPRPRPRPDLFPRP
  shrunken log2 fold change: -0.0784

## RRIRTRPPRLPRPRPRPDLVPRP
  shrunken log2 fold change: -0.0188

## RRIRTRPPRLPRPRPRPDMIPRP
  shrunken log2 fold change: 0.00205

## RRIRTRPPRLPRPRPRPDMPPRP
  shrunken log2 fold change: -0.064

## RRIRTRPPRLPRPRPRPDMYPRP
  shrunken log2 fold change: -0.235

## RRIRTRPPRLPRPRPRPDNCPRP
  shrunken log2 fold change: 0.00765

## RRIRTRPPRLPRPRPRPDNVPRP
  shrunken log2 fold change: -0.881

## RRIRTRPPRLPRPRPRPDNYPRP
  shrunken log2 fold change: -0.0497

## RRIRTRPPRLPRPRPRPDPLPRP
  shrunken log2 fold change: -0.145

## RRIRTRPPRLPRPRPRPDQMPRP
  shrunken log2 fold change: 0.0643

## RRIRTRPPRLPRPRPRPDRSPRP
  shrunken log2 fold change: -0.287

## RRIRTRPPRLPRPRPRPDRVPRP
  shrunken log2 fold change: -0.0605

## RRIRTRPPRLPRPRPRPDSRPRP
  shrunken log2 fold change: -0.00822

## RRIRTRPPRLPRPRPRPDSVPRP
  shrunken log2 fold change: -0.0144

## RRIRTRPPRLPRPRPRPDTMPRP
  shrunken log2 fold change: 0.0881

## RRIRTRPPRLPRPRPRPDVYPRP
  shrunken log2 fold change: 0.00573

## RRIRTRPPRLPRPRPRPDWIPRP
  shrunken log2 fold change: -0.0498

## RRIRTRPPRLPRPRPRPEADPRP
  shrunken log2 fold change: 0.0868

## RRIRTRPPRLPRPRPRPEASPRP
  shrunken log2 fold change: 0.00709

## RRIRTRPPRLPRPRPRPEAYPRP
  shrunken log2 fold change: -0.12

## RRIRTRPPRLPRPRPRPECHPRP
  shrunken log2 fold change: -0.247

## RRIRTRPPRLPRPRPRPECSPRP
  shrunken log2 fold change: 0.0479

## RRIRTRPPRLPRPRPRPECVPRP
  shrunken log2 fold change: 0.148

## RRIRTRPPRLPRPRPRPEDMPRP
  shrunken log2 fold change: -0.00975

## RRIRTRPPRLPRPRPRPEDPPRP
  shrunken log2 fold change: -0.00217

## RRIRTRPPRLPRPRPRPEFFPRP
  shrunken log2 fold change: -0.0853

## RRIRTRPPRLPRPRPRPEFSPRP
  shrunken log2 fold change: 0.00789

## RRIRTRPPRLPRPRPRPEGAPRP
  shrunken log2 fold change: 0.783

## RRIRTRPPRLPRPRPRPEIAPRP
  shrunken log2 fold change: -0.11

## RRIRTRPPRLPRPRPRPEKDPRP
  shrunken log2 fold change: -0.271

## RRIRTRPPRLPRPRPRPEKNPRP
  shrunken log2 fold change: 0.0495

## RRIRTRPPRLPRPRPRPEKTPRP
  shrunken log2 fold change: 0.051

## RRIRTRPPRLPRPRPRPEMTPRP
  shrunken log2 fold change: 0.0523

## RRIRTRPPRLPRPRPRPENCPRP
  shrunken log2 fold change: 0.072

## RRIRTRPPRLPRPRPRPENEPRP
  shrunken log2 fold change: 0.138

## RRIRTRPPRLPRPRPRPENNPRP
  shrunken log2 fold change: -0.267

## RRIRTRPPRLPRPRPRPEPRPRP
  shrunken log2 fold change: 0.482

## RRIRTRPPRLPRPRPRPEQEPRP
  shrunken log2 fold change: -0.0113

## RRIRTRPPRLPRPRPRPEQIPRP
  shrunken log2 fold change: 0.126

## RRIRTRPPRLPRPRPRPERQPRP
  shrunken log2 fold change: -0.0252

## RRIRTRPPRLPRPRPRPETHPRP
  shrunken log2 fold change: 0.179

## RRIRTRPPRLPRPRPRPEVCPRP
  shrunken log2 fold change: 0.212

## RRIRTRPPRLPRPRPRPEVKPRP
  shrunken log2 fold change: 0.174

## RRIRTRPPRLPRPRPRPEVLPRP
  shrunken log2 fold change: -0.0153

## RRIRTRPPRLPRPRPRPFAVPRP
  shrunken log2 fold change: -0.0779

## RRIRTRPPRLPRPRPRPFCNPRP
  shrunken log2 fold change: 0.0687

## RRIRTRPPRLPRPRPRPFCYPRP
  shrunken log2 fold change: -0.24

## RRIRTRPPRLPRPRPRPFDAPRP
  shrunken log2 fold change: -0.343

## RRIRTRPPRLPRPRPRPFDLPRP
  shrunken log2 fold change: -0.29

## RRIRTRPPRLPRPRPRPFEYPRP
  shrunken log2 fold change: -0.0571

## RRIRTRPPRLPRPRPRPFHEPRP
  shrunken log2 fold change: -0.126

## RRIRTRPPRLPRPRPRPFHGPRP
  shrunken log2 fold change: -0.0212

## RRIRTRPPRLPRPRPRPFHTPRP
  shrunken log2 fold change: -0.932

## RRIRTRPPRLPRPRPRPFKYPRP
  shrunken log2 fold change: -0.114

## RRIRTRPPRLPRPRPRPFLGPRP
  shrunken log2 fold change: -0.0873

## RRIRTRPPRLPRPRPRPFLQPRP
  shrunken log2 fold change: 0.0237

## RRIRTRPPRLPRPRPRPFMCPRP
  shrunken log2 fold change: -0.126

## RRIRTRPPRLPRPRPRPFPNPRP
  shrunken log2 fold change: -0.105

## RRIRTRPPRLPRPRPRPFQHPRP
  shrunken log2 fold change: -0.214

## RRIRTRPPRLPRPRPRPFRDPRP
  shrunken log2 fold change: -0.205

## RRIRTRPPRLPRPRPRPFRRPRP
  shrunken log2 fold change: -0.0209

## RRIRTRPPRLPRPRPRPFSVPRP
  shrunken log2 fold change: 0.0234

## RRIRTRPPRLPRPRPRPFVCPRP
  shrunken log2 fold change: -0.374

## RRIRTRPPRLPRPRPRPFVYPRP
  shrunken log2 fold change: -0.639

## RRIRTRPPRLPRPRPRPGAMPRP
  shrunken log2 fold change: 0.144

## RRIRTRPPRLPRPRPRPGDQPRP
  shrunken log2 fold change: -0.0663

## RRIRTRPPRLPRPRPRPGEGPRP
  shrunken log2 fold change: 0.177

## RRIRTRPPRLPRPRPRPGETPRP
  shrunken log2 fold change: -0.105

## RRIRTRPPRLPRPRPRPGFSPRP
  shrunken log2 fold change: -0.016

## RRIRTRPPRLPRPRPRPGGCPRP
  shrunken log2 fold change: 0.26

## RRIRTRPPRLPRPRPRPGGFPRP
  shrunken log2 fold change: 0.413

## RRIRTRPPRLPRPRPRPGGSPRP
  shrunken log2 fold change: 0.135

## RRIRTRPPRLPRPRPRPGICPRP
  shrunken log2 fold change: -0.0258

## RRIRTRPPRLPRPRPRPGIMPRP
  shrunken log2 fold change: -0.452

## RRIRTRPPRLPRPRPRPGLNPRP
  shrunken log2 fold change: -0.213

## RRIRTRPPRLPRPRPRPGLPPRP
  shrunken log2 fold change: 0.189

## RRIRTRPPRLPRPRPRPGNAPRP
  shrunken log2 fold change: -0.0554

## RRIRTRPPRLPRPRPRPGNFPRP
  shrunken log2 fold change: -0.0548

## RRIRTRPPRLPRPRPRPGPHPRP
  shrunken log2 fold change: 0.124

## RRIRTRPPRLPRPRPRPGREPRP
  shrunken log2 fold change: 0.0772

## RRIRTRPPRLPRPRPRPGSIPRP
  shrunken log2 fold change: -0.025

## RRIRTRPPRLPRPRPRPGVDPRP
  shrunken log2 fold change: 0.0151

## RRIRTRPPRLPRPRPRPGWPPRP
  shrunken log2 fold change: 0.576

## RRIRTRPPRLPRPRPRPGWSPRP
  shrunken log2 fold change: 0.354

## RRIRTRPPRLPRPRPRPGWVPRP
  shrunken log2 fold change: -0.0236

## RRIRTRPPRLPRPRPRPHACPRP
  shrunken log2 fold change: 0.158

## RRIRTRPPRLPRPRPRPHCTPRP
  shrunken log2 fold change: -0.298

## RRIRTRPPRLPRPRPRPHEEPRP
  shrunken log2 fold change: 0.0127

## RRIRTRPPRLPRPRPRPHEYPRP
  shrunken log2 fold change: -0.17

## RRIRTRPPRLPRPRPRPHFNPRP
  shrunken log2 fold change: -0.556

## RRIRTRPPRLPRPRPRPHFRPRP
  shrunken log2 fold change: -0.284

## RRIRTRPPRLPRPRPRPHKAPRP
  shrunken log2 fold change: -0.0306

## RRIRTRPPRLPRPRPRPHKYPRP
  shrunken log2 fold change: -0.295

## RRIRTRPPRLPRPRPRPHLIPRP
  shrunken log2 fold change: 2.85

## RRIRTRPPRLPRPRPRPHMPPRP
  shrunken log2 fold change: -0.422

## RRIRTRPPRLPRPRPRPHMQPRP
  shrunken log2 fold change: -0.249

## RRIRTRPPRLPRPRPRPHNLPRP
  shrunken log2 fold change: -0.274

## RRIRTRPPRLPRPRPRPHNSPRP
  shrunken log2 fold change: -1.22

## RRIRTRPPRLPRPRPRPHQLPRP
  shrunken log2 fold change: -0.313

## RRIRTRPPRLPRPRPRPHRIPRP
  shrunken log2 fold change: -0.052

## RRIRTRPPRLPRPRPRPHSYPRP
  shrunken log2 fold change: -1.23

## RRIRTRPPRLPRPRPRPHTAPRP
  shrunken log2 fold change: -0.0446

## RRIRTRPPRLPRPRPRPHWRPRP
  shrunken log2 fold change: 0.027

## RRIRTRPPRLPRPRPRPIAHPRP
  shrunken log2 fold change: 0.00363

## RRIRTRPPRLPRPRPRPIAMPRP
  shrunken log2 fold change: -0.387

## RRIRTRPPRLPRPRPRPICCPRP
  shrunken log2 fold change: 0.0718

## RRIRTRPPRLPRPRPRPICSPRP
  shrunken log2 fold change: -0.0969

## RRIRTRPPRLPRPRPRPIEEPRP
  shrunken log2 fold change: 0.0678

## RRIRTRPPRLPRPRPRPIFHPRP
  shrunken log2 fold change: -0.204

## RRIRTRPPRLPRPRPRPIFKPRP
  shrunken log2 fold change: -0.128

## RRIRTRPPRLPRPRPRPIGDPRP
  shrunken log2 fold change: -0.293

## RRIRTRPPRLPRPRPRPIGEPRP
  shrunken log2 fold change: -0.195

## RRIRTRPPRLPRPRPRPIIEPRP
  shrunken log2 fold change: -0.565

## RRIRTRPPRLPRPRPRPILCPRP
  shrunken log2 fold change: -0.0876

## RRIRTRPPRLPRPRPRPILGPRP
  shrunken log2 fold change: 0.0438

## RRIRTRPPRLPRPRPRPILYPRP
  shrunken log2 fold change: -0.275

## RRIRTRPPRLPRPRPRPINCPRP
  shrunken log2 fold change: 0.00543

## RRIRTRPPRLPRPRPRPISDPRP
  shrunken log2 fold change: -0.0355

## RRIRTRPPRLPRPRPRPITRPRP
  shrunken log2 fold change: -0.0822

## RRIRTRPPRLPRPRPRPITTPRP
  shrunken log2 fold change: -0.438

## RRIRTRPPRLPRPRPRPIVAPRP
  shrunken log2 fold change: 2.95

## RRIRTRPPRLPRPRPRPIVKPRP
  shrunken log2 fold change: -0.144

## RRIRTRPPRLPRPRPRPIYLPRP
  shrunken log2 fold change: -0.224

## RRIRTRPPRLPRPRPRPIYPPRP
  shrunken log2 fold change: -0.243

## RRIRTRPPRLPRPRPRPKADPRP
  shrunken log2 fold change: -0.0127

## RRIRTRPPRLPRPRPRPKAEPRP
  shrunken log2 fold change: -0.000916

## RRIRTRPPRLPRPRPRPKAIPRP
  shrunken log2 fold change: 0.00211

## RRIRTRPPRLPRPRPRPKAPPRP
  shrunken log2 fold change: 0.317

## RRIRTRPPRLPRPRPRPKCIPRP
  shrunken log2 fold change: -0.292

## RRIRTRPPRLPRPRPRPKDPPRP
  shrunken log2 fold change: 0.0667
